Target: megalin (low-density lipoprotein receptor-related protein 2) (mouse (endogenous in hippocampal neurons)) (UniProt A2ARV4)
Sequence (A2ARV4 26-4660): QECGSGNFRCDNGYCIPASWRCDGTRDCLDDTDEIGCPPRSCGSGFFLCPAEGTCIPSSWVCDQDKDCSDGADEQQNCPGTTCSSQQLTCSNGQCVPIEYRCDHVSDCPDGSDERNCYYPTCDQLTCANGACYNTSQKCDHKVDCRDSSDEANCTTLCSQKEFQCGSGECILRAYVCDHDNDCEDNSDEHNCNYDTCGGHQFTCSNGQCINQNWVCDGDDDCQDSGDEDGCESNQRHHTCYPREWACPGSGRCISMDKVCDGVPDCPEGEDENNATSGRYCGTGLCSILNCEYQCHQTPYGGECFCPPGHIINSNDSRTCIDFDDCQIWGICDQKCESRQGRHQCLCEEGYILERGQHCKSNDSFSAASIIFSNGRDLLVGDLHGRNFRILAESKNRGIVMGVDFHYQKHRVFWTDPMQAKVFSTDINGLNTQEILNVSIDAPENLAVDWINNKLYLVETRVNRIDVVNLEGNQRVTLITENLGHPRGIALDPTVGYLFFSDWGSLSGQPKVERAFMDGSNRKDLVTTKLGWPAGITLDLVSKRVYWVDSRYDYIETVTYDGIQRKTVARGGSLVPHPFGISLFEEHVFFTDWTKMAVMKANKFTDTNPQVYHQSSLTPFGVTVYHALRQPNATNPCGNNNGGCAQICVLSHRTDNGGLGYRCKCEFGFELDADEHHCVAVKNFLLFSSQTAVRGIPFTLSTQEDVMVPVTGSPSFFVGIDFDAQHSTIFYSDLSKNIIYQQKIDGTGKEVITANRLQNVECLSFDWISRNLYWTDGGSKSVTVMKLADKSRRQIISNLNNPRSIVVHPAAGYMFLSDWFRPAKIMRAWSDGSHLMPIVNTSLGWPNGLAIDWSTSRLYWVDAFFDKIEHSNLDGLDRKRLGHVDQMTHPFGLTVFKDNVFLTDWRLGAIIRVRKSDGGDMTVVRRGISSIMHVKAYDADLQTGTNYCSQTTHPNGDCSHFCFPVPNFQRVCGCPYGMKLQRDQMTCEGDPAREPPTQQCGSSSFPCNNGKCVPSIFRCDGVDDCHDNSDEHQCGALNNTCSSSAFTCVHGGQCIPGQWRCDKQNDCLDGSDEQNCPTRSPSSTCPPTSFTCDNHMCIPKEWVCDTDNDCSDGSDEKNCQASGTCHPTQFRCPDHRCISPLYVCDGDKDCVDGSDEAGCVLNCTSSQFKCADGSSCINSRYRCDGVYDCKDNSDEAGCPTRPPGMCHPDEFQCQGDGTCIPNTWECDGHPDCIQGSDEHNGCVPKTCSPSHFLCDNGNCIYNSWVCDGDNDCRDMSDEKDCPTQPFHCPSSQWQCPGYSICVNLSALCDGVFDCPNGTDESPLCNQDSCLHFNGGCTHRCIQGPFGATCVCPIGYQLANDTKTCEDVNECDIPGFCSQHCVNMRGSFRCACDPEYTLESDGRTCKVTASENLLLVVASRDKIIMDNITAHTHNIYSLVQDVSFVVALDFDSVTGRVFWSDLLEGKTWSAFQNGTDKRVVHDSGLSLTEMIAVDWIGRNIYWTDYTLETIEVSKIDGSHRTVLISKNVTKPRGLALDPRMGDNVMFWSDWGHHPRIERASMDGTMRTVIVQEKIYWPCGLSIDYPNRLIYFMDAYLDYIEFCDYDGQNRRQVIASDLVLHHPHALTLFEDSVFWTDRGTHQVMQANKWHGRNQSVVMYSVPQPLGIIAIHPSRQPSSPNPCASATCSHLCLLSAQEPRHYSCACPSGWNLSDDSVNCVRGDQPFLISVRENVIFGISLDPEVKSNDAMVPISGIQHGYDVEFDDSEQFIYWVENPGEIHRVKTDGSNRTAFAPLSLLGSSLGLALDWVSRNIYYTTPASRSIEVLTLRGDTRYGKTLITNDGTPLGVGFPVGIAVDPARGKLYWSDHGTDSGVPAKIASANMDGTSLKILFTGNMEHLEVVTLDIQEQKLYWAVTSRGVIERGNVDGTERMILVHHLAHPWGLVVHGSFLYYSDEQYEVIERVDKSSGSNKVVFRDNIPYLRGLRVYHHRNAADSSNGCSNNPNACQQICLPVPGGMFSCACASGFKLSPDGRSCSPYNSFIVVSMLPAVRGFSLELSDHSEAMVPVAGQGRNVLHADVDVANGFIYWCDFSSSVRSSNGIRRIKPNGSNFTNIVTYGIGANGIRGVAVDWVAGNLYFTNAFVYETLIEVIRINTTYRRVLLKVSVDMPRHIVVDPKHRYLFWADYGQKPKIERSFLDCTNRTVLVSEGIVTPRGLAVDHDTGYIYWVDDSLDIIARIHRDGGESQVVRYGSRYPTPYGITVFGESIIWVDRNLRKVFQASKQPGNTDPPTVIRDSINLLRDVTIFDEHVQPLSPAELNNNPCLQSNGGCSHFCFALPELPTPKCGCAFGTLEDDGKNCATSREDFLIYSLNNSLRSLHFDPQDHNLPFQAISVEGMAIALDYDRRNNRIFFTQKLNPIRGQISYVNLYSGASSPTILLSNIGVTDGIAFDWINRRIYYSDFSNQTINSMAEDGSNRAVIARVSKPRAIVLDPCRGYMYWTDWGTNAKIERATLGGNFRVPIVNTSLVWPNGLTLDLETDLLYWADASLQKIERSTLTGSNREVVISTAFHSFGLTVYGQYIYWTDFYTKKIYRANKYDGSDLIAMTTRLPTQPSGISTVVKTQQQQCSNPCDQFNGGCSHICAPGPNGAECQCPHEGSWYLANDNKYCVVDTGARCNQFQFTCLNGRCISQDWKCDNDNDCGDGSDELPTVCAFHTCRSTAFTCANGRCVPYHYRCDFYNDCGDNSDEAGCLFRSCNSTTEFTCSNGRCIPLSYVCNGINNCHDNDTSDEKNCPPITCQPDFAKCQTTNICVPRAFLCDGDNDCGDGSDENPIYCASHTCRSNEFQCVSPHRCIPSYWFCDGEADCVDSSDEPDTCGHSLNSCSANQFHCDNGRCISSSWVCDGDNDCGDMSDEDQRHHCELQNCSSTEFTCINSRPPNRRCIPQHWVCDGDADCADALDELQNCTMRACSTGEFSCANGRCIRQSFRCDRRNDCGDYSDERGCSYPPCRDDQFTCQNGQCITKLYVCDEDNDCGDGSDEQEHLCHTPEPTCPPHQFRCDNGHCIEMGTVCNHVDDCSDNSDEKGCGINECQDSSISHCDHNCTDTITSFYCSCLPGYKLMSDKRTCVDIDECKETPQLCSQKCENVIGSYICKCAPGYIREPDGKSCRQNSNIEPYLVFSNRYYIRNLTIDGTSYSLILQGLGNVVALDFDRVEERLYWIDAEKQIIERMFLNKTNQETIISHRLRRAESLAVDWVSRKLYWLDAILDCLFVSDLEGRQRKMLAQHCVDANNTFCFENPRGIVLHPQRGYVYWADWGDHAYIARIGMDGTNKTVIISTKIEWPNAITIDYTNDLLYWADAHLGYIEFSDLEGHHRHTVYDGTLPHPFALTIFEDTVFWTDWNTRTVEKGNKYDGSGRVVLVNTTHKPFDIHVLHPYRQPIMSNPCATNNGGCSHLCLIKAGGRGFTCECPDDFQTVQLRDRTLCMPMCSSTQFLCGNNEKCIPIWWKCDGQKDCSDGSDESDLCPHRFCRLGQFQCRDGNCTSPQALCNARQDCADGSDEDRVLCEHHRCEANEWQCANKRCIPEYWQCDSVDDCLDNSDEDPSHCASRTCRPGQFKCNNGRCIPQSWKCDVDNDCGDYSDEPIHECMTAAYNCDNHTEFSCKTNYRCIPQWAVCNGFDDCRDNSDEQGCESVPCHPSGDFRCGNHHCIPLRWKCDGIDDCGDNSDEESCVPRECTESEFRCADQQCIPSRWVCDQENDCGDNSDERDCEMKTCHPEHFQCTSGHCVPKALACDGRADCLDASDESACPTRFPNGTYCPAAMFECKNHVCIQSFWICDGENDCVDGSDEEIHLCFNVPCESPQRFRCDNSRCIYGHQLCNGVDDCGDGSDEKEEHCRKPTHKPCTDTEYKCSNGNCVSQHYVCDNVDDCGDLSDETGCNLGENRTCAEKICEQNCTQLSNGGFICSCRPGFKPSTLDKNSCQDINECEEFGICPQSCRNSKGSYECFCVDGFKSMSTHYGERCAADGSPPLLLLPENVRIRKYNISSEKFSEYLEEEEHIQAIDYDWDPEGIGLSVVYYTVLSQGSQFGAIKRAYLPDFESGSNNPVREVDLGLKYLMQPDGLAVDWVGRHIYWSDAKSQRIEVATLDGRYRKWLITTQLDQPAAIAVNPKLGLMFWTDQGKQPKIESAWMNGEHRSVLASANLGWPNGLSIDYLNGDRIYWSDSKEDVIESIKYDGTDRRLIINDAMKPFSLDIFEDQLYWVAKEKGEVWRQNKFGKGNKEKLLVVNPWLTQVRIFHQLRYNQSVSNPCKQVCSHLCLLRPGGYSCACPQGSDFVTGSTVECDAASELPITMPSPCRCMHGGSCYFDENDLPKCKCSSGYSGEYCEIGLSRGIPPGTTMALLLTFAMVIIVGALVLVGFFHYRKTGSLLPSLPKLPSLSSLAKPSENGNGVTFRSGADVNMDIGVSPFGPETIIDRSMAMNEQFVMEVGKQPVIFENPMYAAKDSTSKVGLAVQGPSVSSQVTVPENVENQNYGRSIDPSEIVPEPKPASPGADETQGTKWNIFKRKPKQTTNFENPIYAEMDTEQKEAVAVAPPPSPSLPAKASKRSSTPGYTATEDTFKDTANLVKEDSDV

LRP2-ICD level (western blot, anti-GFP) in TTR KO neurons transfected with short-megalin-GFP and stimulated with recombinant mouse TTR (55 µg/ml, 4 h): 50 % increase | LRP2-ICD level (western blot, anti-megalin) in non-transfected WT hippocampal neurons (15 DIV) after 5 min with recombinant mouse TTR (55 µg/ml): 5 fold
Substance: recombinant mouse transthyretin (from UniProt P07309 21-147) (ligand)
